Assay results taken from publication PMC12295887.

Columns and labels:
[1] = target: actin purified from rabbit skeletal muscle (m. longissimus dorsi) (rabbit) (UniProt P68135)
[2] = target: actin purified from rabbit skeletal muscle (m. longissimus dorsi) (rabbit) (UniProt P68135); remark: listed apart in the source
[3] = target: actin purified from rabbit skeletal muscle (m. longissimus dorsi) (rabbit) (UniProt P68135); remark: listed apart in the source

For “PEVKII, the middle one-third segment of the human skeletal muscle titin PEVK domain (domain or fragment)”, the pyrene-actin fluorescence excitation and emission intensity after 800 s of polymerization, 4 µM actin (10% pyrene-labeled) with 5.5 nM PEVKII, against actin alone [1] was 16%, the initial rate of actin polymerization (pyrene assay, 4 µM actin), PEVKII 3.25-32.5 nM, against actin alone [2] was over 30 fold and the peak pyrene fluorescence intensity (total amount of F-actin), 4 µM actin, PEVKII 3.25-32.5 nM, against actin alone [3] was 22%. The time to reach the peak pyrene fluorescence intensity, 4 µM actin, PEVKII 3.25-32.5 nM, against actin alone [3] was over 3 times faster.
